We go through six molecules from patent publication US20190353642A1 (WUHAN INSTITUTE OF VIROLOGY CHINESE ACADEMY OF SCIENCES, published 2019).

B1: flag-tagged truncated CD2AP 1-107 aa (other)
chain: MVDYIVEYDYDAVHDDELTIRVGEIIRNVKKLQEEGWLEGELNGRRGMFPDNFVKEIKRETEFKDDSLPIKRERHGNVASLVQRISTYGLPAGGIQPHPQTKNIKKK
notes: Contains the first SH3 domain; not shown: Flag tag
B2: flag-tagged truncated CD2AP 1-330 aa (other)
chain: MVDYIVEYDYDAVHDDELTIRVGEIIRNVKKLQEEGWLEGELNGRRGMFPDNFVKEIKRETEFKDDSLPIKRERHGNVASLVQRISTYGLPAGGIQPHPQTKNIKKKTKKRQCKVLFEYIPQNEDELELKVGDIIDINEEVEEGWWSGTLNNKLGLFPSNFVKELEVTDDGETHEAQDDSETVLAGPTSPIPSLGNVSETASGSVTQPKKIRGIGFGDIFKEGSVKLRTRTSSSETEEKKPEKPLILQSLGPKTQSVEITKTDTEGKIKAKEYCRTLFAYEGTNEDELTFKEGEIIHLISKETGEAGWWRGELNGKEGVFPDNFAVQINE
notes: Contains all three SH3 domains; not shown: Flag tag
B3: Flag-tagged NS5A derived from HCV genotype 2a strain JFH1 (pRK-Flag-NS5A), full length (other)
chain: SGSWLRDVWDWVCTILTDFKNWLTSKLFPKLPGLPFISCQKGYKGVWAGTGIMTTRCPCGANISGNVRLGSMRITGPKTCMNTWQGTFPINCYTEGQCAPKPPTNYKTAIWRVAASEYAEVTQHGSYSYVTGLTTDNLKIPCQLPSPEFFSWVDGVQIHRFAPTPKPFFRDEVSFCVGLNSYAVGSQLPCEPEPDADVLRSMLTDPPHITAETAARRLARGSPPSEASSSVSQLSAPSLRATCTTHSNTYDVDMVDANLLMEGGVAQTEPESRVPVLDFLEPMAEEESDLEPSIPSECMLPRSGFPRALPAWARPDYNPPLVESWRRPDYQPPTVAGCALPPPKKAPTPPPRRRRTVGLSESTISEALQQLAIKTFGQPPSSGDAGSSTGAGAAESGGPTSPGEPAPSETGSASSMPPLEGEPGDPDLESDQVELQPPPQGGGVAPGSGSGSWSTCSEEDDTTVCC
notes: not shown: Flag tag from vector pRK-7 Flag
B4: NS5A of HCV JFH1 in infected Huh7.5.1 cells (other)
chain: B3 chain
notes: also called endogenous NS5A
B5: HA-tagged full length NS5A (other)
chain: B3 chain
notes: also called HA-tagged NS5A; not shown: HA tag from vector pRK-7 HA
B6: flag-tagged truncated CD2AP 1-268 aa (other)
chain: MVDYIVEYDYDAVHDDELTIRVGEIIRNVKKLQEEGWLEGELNGRRGMFPDNFVKEIKRETEFKDDSLPIKRERHGNVASLVQRISTYGLPAGGIQPHPQTKNIKKKTKKRQCKVLFEYIPQNEDELELKVGDIIDINEEVEEGWWSGTLNNKLGLFPSNFVKELEVTDDGETHEAQDDSETVLAGPTSPIPSLGNVSETASGSVTQPKKIRGIGFGDIFKEGSVKLRTRTSSSETEEKKPEKPLILQSLGPKTQSVEITKTDTEGKI
notes: not shown: Flag tag

The target in assay [1] is B5. Put plainly: co-IP with anti-flag antibody, HEK 293T cells, blot with anti-HA.
Assay [2] concerns the target T1, HA-tagged CD2AP (pRK-HA-CD2AP), human, full length (human, UniProt Q9Y5K6 1-639).
T1 construct: Over-expressed in HEK 293T cells and tested in cell lysate by co-IP; also called CD2 associated protein; not shown: HA tag from vector pRK-7 HA
Put plainly: co-IP with anti-flag antibody from HEK 293T cells over-expressing both, blot with anti-HA.

The target in assay [3] is T2, CD2AP, endogenous, in Huh7.5.1 cells (human, UniProt Q9Y5K6 1-639).
T2 construct: Endogenous protein of human hepatoma Huh7.5.1 cells, in cell lysate
Put plainly: endogenous co-IP, both directions, Huh7.5.1 cells infected with HCV JFH1.

Assay [4] addresses T3, flag-tagged truncated CD2AP 60-639 aa (human, UniProt Q9Y5K6 60-639).
T3 construct: No first SH3 domain, all other CD2AP domains kept; also called CD2AP lacking the first SH3 domain; not shown: Flag tag
The assay can be described thus: co-IP with anti-flag antibody, HEK 293T cells, blot with anti-HA.

The target in assay [5] is T4, flag-tagged CD2AP 1-639 aa (full length) (human, UniProt Q9Y5K6 1-639).
T4 construct: also called Full length CD2AP; not shown: Flag tag
Described as above.

T3 sequence (Q9Y5K6 60-639): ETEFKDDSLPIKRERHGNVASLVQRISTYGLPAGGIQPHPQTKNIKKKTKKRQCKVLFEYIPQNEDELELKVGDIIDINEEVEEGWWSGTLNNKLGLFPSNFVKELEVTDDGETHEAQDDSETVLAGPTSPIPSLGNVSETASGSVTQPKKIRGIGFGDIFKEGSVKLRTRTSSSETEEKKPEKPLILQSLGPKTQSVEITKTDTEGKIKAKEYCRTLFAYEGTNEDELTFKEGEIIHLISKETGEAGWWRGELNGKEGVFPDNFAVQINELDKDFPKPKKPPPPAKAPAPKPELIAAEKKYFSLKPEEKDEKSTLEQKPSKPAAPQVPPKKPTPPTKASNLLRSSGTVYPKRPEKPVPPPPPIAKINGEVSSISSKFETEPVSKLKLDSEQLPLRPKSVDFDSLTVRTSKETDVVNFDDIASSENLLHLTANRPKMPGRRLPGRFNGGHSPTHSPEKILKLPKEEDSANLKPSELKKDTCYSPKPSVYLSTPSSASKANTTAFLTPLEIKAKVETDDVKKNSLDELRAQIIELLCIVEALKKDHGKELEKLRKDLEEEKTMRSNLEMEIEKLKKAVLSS

For B1, the binding result in assay [1] is “binds”.

As to B2, in assay [1], the binding result is on record as “binds”.

On to B3, for which the binding result in assay [2] is “binds”.

As for B4, the binding result in assay [3] is reported as “binds”.

Consider B5, for which the binding result in assay [4] and in assay [5] was “binds” throughout.

For the molecule B6, in assay [1], the binding result is listed as “binds”.
